# Biological target: recombinant manganese superoxide dismutase (MnSOD) from Lactococcus lactis M4 (Lactococcus lactis M4) (UniProt P0A4J2)
# Assay: SEC; Superose 12 HR 16/70 packed column, 20 mM phosphate buffer, 0.15 M NaCl, pH 7.0, 0.75 mL/min; calibrated with aprotinin, cytochrome c, carbonic anhydrase and BSA; estimated mass 63 kDa against 55.4 kDa theoretical for a dimer
substance,measurement,value
recombinant manganese superoxide dismutase (MnSOD) from Lactococcus lactis M4 (from UniProt P0A4J2 1-206) (enzyme),stoichiometry N,2

# — article PMC3921932
